# Results from patent US20260001928A1 (CORTERIA PHARMACEUTICALS, priority 2022, published 2026).
# *1 amine or outer side, *2 acyl side, *3 side chain or, on linkers, in order; H or OH if unused. Where no end group is shown, it is not given here. Side-chain parts run from the residue outwards. [ ]: non-standard residue; d: D form. The star is where a group is joined. C20 diacid = O=C(O)CCCCCCCCCCCCCCCCCCC(=O)*; C18 diacid = O=C(O)CCCCCCCCCCCCCCCCC(=O)*; γGlu = O=C(O)[C@H](CCC(=O)[*:2])N[*:1]; NMeI = CC[C@H](C)[C@H](NC)C(=O)O; Pentanoyl = CCCCC(=O)*; Aib = CC(C)(N)C(=O)O
# Target: Rat CRF2 a (corticotropin-releasing factor receptor 2), on the A7R5 rat aortic smooth muscle cell line (rat, UniProt P47866 20-411)
# Sequence (P47866 20-411): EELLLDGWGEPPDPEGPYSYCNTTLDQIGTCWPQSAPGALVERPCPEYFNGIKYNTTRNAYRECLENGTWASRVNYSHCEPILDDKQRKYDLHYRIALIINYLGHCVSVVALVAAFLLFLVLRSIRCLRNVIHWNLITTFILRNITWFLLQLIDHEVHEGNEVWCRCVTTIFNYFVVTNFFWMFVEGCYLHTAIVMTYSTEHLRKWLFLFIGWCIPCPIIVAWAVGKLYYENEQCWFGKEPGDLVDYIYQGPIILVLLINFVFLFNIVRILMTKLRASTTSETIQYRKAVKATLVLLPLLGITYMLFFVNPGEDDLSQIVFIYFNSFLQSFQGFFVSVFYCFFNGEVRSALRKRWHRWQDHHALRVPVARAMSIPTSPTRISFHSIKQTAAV
# Assay: cell-based or functional assay
row,Binder,"EC50 [nM] 0% HSA (cAMP, A7R5 rat aortic smooth muscle cells)"
1,Ac-IVLSLD[dV]PIKLK([γGlu-C18 diacid])KILLEQEKQKAQREQAETN[Aib]QILAQV-NH2 (SMILES CC[C@H](C)[C@H](NC(C)=O)C(=O)N[C@H](C(=O)N[C@@H](CC(C)C)C(=O)N[C@@H](CO)C(=O)N[C@@H](CC(C)C)C(=O)N[C@@H](CC(=O)O)C(=O)N[C@@H](C(=O)N1CCC[C@H]1C(=O)N[C@H](C(=O)N[C@@H](CCCCN)C(=O)N[C@@H](CC(C)C)C(=O)N[C@@H](CCCCNC(=O)CC[C@H](NC(=O)CCCCCCCCCCCCCCCCC(=O)O)C(=O)O)C(=O)N[C@@H](CCCCN)C(=O)N[C@H](C(=O)N[C@@H](CC(C)C)C(=O)N[C@@H](CC(C)C)C(=O)N[C@@H](CCC(=O)O)C(=O)N[C@@H](CCC(N)=O)C(=O)N[C@@H](CCC(=O)O)C(=O)N[C@@H](CCCCN)C(=O)N[C@@H](CCC(N)=O)C(=O)N[C@@H](CCCCN)C(=O)N[C@@H](C)C(=O)N[C@@H](CCC(N)=O)C(=O)N[C@@H](CCCNC(=N)N)C(=O)N[C@@H](CCC(=O)O)C(=O)N[C@@H](CCC(N)=O)C(=O)N[C@@H](C)C(=O)N[C@@H](CCC(=O)O)C(=O)N[C@H](C(=O)N[C@@H](CC(N)=O)C(=O)NC(C)(C)C(=O)N[C@@H](CCC(N)=O)C(=O)N[C@H](C(=O)N[C@@H](CC(C)C)C(=O)N[C@@H](C)C(=O)N[C@@H](CCC(N)=O)C(=O)N[C@H](C(N)=O)C(C)C)[C@@H](C)CC)[C@@H](C)O)[C@@H](C)CC)[C@@H](C)CC)C(C)C)C(C)C) [peptide of SEQ ID NO: 189],0.15 nM
2,Ac-IVLSLD[dV]PIKLK([γGlu-C20 diacid])KILLEQEKQKAQREQAETN[Aib]QILAQV-NH2 (SMILES CC[C@H](C)[C@H](NC(C)=O)C(=O)N[C@H](C(=O)N[C@@H](CC(C)C)C(=O)N[C@@H](CO)C(=O)N[C@@H](CC(C)C)C(=O)N[C@@H](CC(=O)O)C(=O)N[C@@H](C(=O)N1CCC[C@H]1C(=O)N[C@H](C(=O)N[C@@H](CCCCN)C(=O)N[C@@H](CC(C)C)C(=O)N[C@@H](CCCCNC(=O)CC[C@H](NC(=O)CCCCCCCCCCCCCCCCCCC(=O)O)C(=O)O)C(=O)N[C@@H](CCCCN)C(=O)N[C@H](C(=O)N[C@@H](CC(C)C)C(=O)N[C@@H](CC(C)C)C(=O)N[C@@H](CCC(=O)O)C(=O)N[C@@H](CCC(N)=O)C(=O)N[C@@H](CCC(=O)O)C(=O)N[C@@H](CCCCN)C(=O)N[C@@H](CCC(N)=O)C(=O)N[C@@H](CCCCN)C(=O)N[C@@H](C)C(=O)N[C@@H](CCC(N)=O)C(=O)N[C@@H](CCCNC(=N)N)C(=O)N[C@@H](CCC(=O)O)C(=O)N[C@@H](CCC(N)=O)C(=O)N[C@@H](C)C(=O)N[C@@H](CCC(=O)O)C(=O)N[C@H](C(=O)N[C@@H](CC(N)=O)C(=O)NC(C)(C)C(=O)N[C@@H](CCC(N)=O)C(=O)N[C@H](C(=O)N[C@@H](CC(C)C)C(=O)N[C@@H](C)C(=O)N[C@@H](CCC(N)=O)C(=O)N[C@H](C(N)=O)C(C)C)[C@@H](C)CC)[C@@H](C)O)[C@@H](C)CC)[C@@H](C)CC)C(C)C)C(C)C) [peptide of SEQ ID NO: 212],0.08 nM
3,Ac-IVLSLD[dV]PIKLK([γGlu-C20 diacid])KILLEQEKQKKQREQAETN[Aib]QILAQV-NH2 (SMILES CC[C@H](C)[C@H](NC(C)=O)C(=O)N[C@H](C(=O)N[C@@H](CC(C)C)C(=O)N[C@@H](CO)C(=O)N[C@@H](CC(C)C)C(=O)N[C@@H](CC(=O)O)C(=O)N[C@@H](C(=O)N1CCC[C@H]1C(=O)N[C@H](C(=O)N[C@@H](CCCCN)C(=O)N[C@@H](CC(C)C)C(=O)N[C@@H](CCCCNC(=O)CC[C@H](NC(=O)CCCCCCCCCCCCCCCCCCC(=O)O)C(=O)O)C(=O)N[C@@H](CCCCN)C(=O)N[C@H](C(=O)N[C@@H](CC(C)C)C(=O)N[C@@H](CC(C)C)C(=O)N[C@@H](CCC(=O)O)C(=O)N[C@@H](CCC(N)=O)C(=O)N[C@@H](CCC(=O)O)C(=O)N[C@@H](CCCCN)C(=O)N[C@@H](CCC(N)=O)C(=O)N[C@@H](CCCCN)C(=O)N[C@@H](CCCCN)C(=O)N[C@@H](CCC(N)=O)C(=O)N[C@@H](CCCNC(=N)N)C(=O)N[C@@H](CCC(=O)O)C(=O)N[C@@H](CCC(N)=O)C(=O)N[C@@H](C)C(=O)N[C@@H](CCC(=O)O)C(=O)N[C@H](C(=O)N[C@@H](CC(N)=O)C(=O)NC(C)(C)C(=O)N[C@@H](CCC(N)=O)C(=O)N[C@H](C(=O)N[C@@H](CC(C)C)C(=O)N[C@@H](C)C(=O)N[C@@H](CCC(N)=O)C(=O)N[C@H](C(N)=O)C(C)C)[C@@H](C)CC)[C@@H](C)O)[C@@H](C)CC)[C@@H](C)CC)C(C)C)C(C)C) [peptide of SEQ ID NO: 206],0.06 nM

# Results, then the binder that gave them:
row,"EC50 [nM] 0% HSA (cAMP, A7R5 rat aortic smooth muscle cells)",Binder
1,0.06 nM,[NMeI]VLSLD[dV]PIKLK([γGlu-C20 diacid])KILLEQEKQKAQREQAETN[Aib]QILAQV-NH2 (N-terminus assumed; SMILES CC[C@H](C)[C@H](NC)C(=O)N[C@H](C(=O)N[C@@H](CC(C)C)C(=O)N[C@@H](CO)C(=O)N[C@@H](CC(C)C)C(=O)N[C@@H](CC(=O)O)C(=O)N[C@@H](C(=O)N1CCC[C@H]1C(=O)N[C@H](C(=O)N[C@@H](CCCCN)C(=O)N[C@@H](CC(C)C)C(=O)N[C@@H](CCCCNC(=O)CC[C@H](NC(=O)CCCCCCCCCCCCCCCCCCC(=O)O)C(=O)O)C(=O)N[C@@H](CCCCN)C(=O)N[C@H](C(=O)N[C@@H](CC(C)C)C(=O)N[C@@H](CC(C)C)C(=O)N[C@@H](CCC(=O)O)C(=O)N[C@@H](CCC(N)=O)C(=O)N[C@@H](CCC(=O)O)C(=O)N[C@@H](CCCCN)C(=O)N[C@@H](CCC(N)=O)C(=O)N[C@@H](CCCCN)C(=O)N[C@@H](C)C(=O)N[C@@H](CCC(N)=O)C(=O)N[C@@H](CCCNC(=N)N)C(=O)N[C@@H](CCC(=O)O)C(=O)N[C@@H](CCC(N)=O)C(=O)N[C@@H](C)C(=O)N[C@@H](CCC(=O)O)C(=O)N[C@H](C(=O)N[C@@H](CC(N)=O)C(=O)NC(C)(C)C(=O)N[C@@H](CCC(N)=O)C(=O)N[C@H](C(=O)N[C@@H](CC(C)C)C(=O)N[C@@H](C)C(=O)N[C@@H](CCC(N)=O)C(=O)N[C@H](C(N)=O)C(C)C)[C@@H](C)CC)[C@@H](C)O)[C@@H](C)CC)[C@@H](C)CC)C(C)C)C(C)C) [peptide of SEQ ID NO: 217]
2,0.18 nM,Pentanoyl-VLSLD[dV]PIKLK([γGlu-C20 diacid])KILLEQEKQKAQREQAETN[Aib]QILAQV-NH2 (SMILES CCCCC(=O)N[C@H](C(=O)N[C@@H](CC(C)C)C(=O)N[C@@H](CO)C(=O)N[C@@H](CC(C)C)C(=O)N[C@@H](CC(=O)O)C(=O)N[C@@H](C(=O)N1CCC[C@H]1C(=O)N[C@H](C(=O)N[C@@H](CCCCN)C(=O)N[C@@H](CC(C)C)C(=O)N[C@@H](CCCCNC(=O)CC[C@H](NC(=O)CCCCCCCCCCCCCCCCCCC(=O)O)C(=O)O)C(=O)N[C@@H](CCCCN)C(=O)N[C@H](C(=O)N[C@@H](CC(C)C)C(=O)N[C@@H](CC(C)C)C(=O)N[C@@H](CCC(=O)O)C(=O)N[C@@H](CCC(N)=O)C(=O)N[C@@H](CCC(=O)O)C(=O)N[C@@H](CCCCN)C(=O)N[C@@H](CCC(N)=O)C(=O)N[C@@H](CCCCN)C(=O)N[C@@H](C)C(=O)N[C@@H](CCC(N)=O)C(=O)N[C@@H](CCCNC(=N)N)C(=O)N[C@@H](CCC(=O)O)C(=O)N[C@@H](CCC(N)=O)C(=O)N[C@@H](C)C(=O)N[C@@H](CCC(=O)O)C(=O)N[C@H](C(=O)N[C@@H](CC(N)=O)C(=O)NC(C)(C)C(=O)N[C@@H](CCC(N)=O)C(=O)N[C@H](C(=O)N[C@@H](CC(C)C)C(=O)N[C@@H](C)C(=O)N[C@@H](CCC(N)=O)C(=O)N[C@H](C(N)=O)C(C)C)[C@@H](C)CC)[C@@H](C)O)[C@@H](C)CC)[C@@H](C)CC)C(C)C)C(C)C) [peptide of SEQ ID NO: 222]
3,0.04 nM,[NMeI]VLSLD[dV]PIKLK([γGlu-C20 diacid])KILLEQEKQK[Aib]QREQAETN[Aib]QILAQV-NH2 (N-terminus assumed; SMILES CC[C@H](C)[C@H](NC)C(=O)N[C@H](C(=O)N[C@@H](CC(C)C)C(=O)N[C@@H](CO)C(=O)N[C@@H](CC(C)C)C(=O)N[C@@H](CC(=O)O)C(=O)N[C@@H](C(=O)N1CCC[C@H]1C(=O)N[C@H](C(=O)N[C@@H](CCCCN)C(=O)N[C@@H](CC(C)C)C(=O)N[C@@H](CCCCNC(=O)CC[C@H](NC(=O)CCCCCCCCCCCCCCCCCCC(=O)O)C(=O)O)C(=O)N[C@@H](CCCCN)C(=O)N[C@H](C(=O)N[C@@H](CC(C)C)C(=O)N[C@@H](CC(C)C)C(=O)N[C@@H](CCC(=O)O)C(=O)N[C@@H](CCC(N)=O)C(=O)N[C@@H](CCC(=O)O)C(=O)N[C@@H](CCCCN)C(=O)N[C@@H](CCC(N)=O)C(=O)N[C@@H](CCCCN)C(=O)NC(C)(C)C(=O)N[C@@H](CCC(N)=O)C(=O)N[C@@H](CCCNC(=N)N)C(=O)N[C@@H](CCC(=O)O)C(=O)N[C@@H](CCC(N)=O)C(=O)N[C@@H](C)C(=O)N[C@@H](CCC(=O)O)C(=O)N[C@H](C(=O)N[C@@H](CC(N)=O)C(=O)NC(C)(C)C(=O)N[C@@H](CCC(N)=O)C(=O)N[C@H](C(=O)N[C@@H](CC(C)C)C(=O)N[C@@H](C)C(=O)N[C@@H](CCC(N)=O)C(=O)N[C@H](C(N)=O)C(C)C)[C@@H](C)CC)[C@@H](C)O)[C@@H](C)CC)[C@@H](C)CC)C(C)C)C(C)C) [peptide of SEQ ID NO: 215]
